Residue numbers refer to the chain shown, from its start. Numbers in names are those of the source.
T1: NTwt (wildtype N-terminal (NT) fragment of Euprosthenops australis major ampullate spidroin 1) (Euprosthenops australis)
T1 chain: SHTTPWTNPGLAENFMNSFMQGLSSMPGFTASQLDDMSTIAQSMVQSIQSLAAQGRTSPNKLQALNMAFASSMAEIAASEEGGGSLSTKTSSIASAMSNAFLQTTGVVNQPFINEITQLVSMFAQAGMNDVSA

B1: NTwt (wildtype N-terminal (NT) fragment of Euprosthenops australis major ampullate spidroin 1) (protein)
chain: T1 chain
B2: NTD40K/K65D (charge-reversed double mutant of the NT fragment) (other)
chain: T1 chain with D36K, K61D
notes: Expressed in E. coli BL21 (DE3); also called charge-reversed NT mutant; NT mutant

Legend:
[1] = molecular target: T1, NTwt (wildtype N-terminal (NT) fragment …); assay: tryptophan fluorescence ratio 339/351 nm vs pH, 5 µM protein in 20 mM HEPES/20 mM MES; homodimerization; details: remark: other sources report otherwise
[2] = molecular target: the molecule itself; assay: tryptophan fluorescence ratio 339/351 nm vs pH (self-association / dimerization)
Procedure: Fluorescence emission spectra for NT_{D40K/K65D} (SEQ ID NO: 2) and NTwt (SEQ ID NO: 11), respectively, were measured on a spectrofluorometer (Tecan Safire 2) using Costar® black polystyrene assay plates with 96 flat bottom wells. The proteins were diluted to a concentration of 5 μM in 20 mM HEPES/20 mM MES adjusted to pH 5.6-8.0 in steps of 0.4 pH units. After exciting the samples at 280 nm (5 nm bandwidth), emission spectra were recorded in 1 nm steps between 300-400 nm (10 nm bandwidth). The tryptophan fluorescence ratio was calculated from the intensities at 339 nm and 351 nm and plotted as a function of pH. […]
The pH-dependent monomer-dimer equilibrium of NT can be monitored through the fluorescence shift of a single tryptophan (Trp) residue that becomes more exposed in the dimer. FIG. 2 is a graph illustrating the monomer-dimer equilibrium measured with Trp fluorescence. Trp fluorescence spectra between 300 and 400 nm were measured in 20 mM HEPES/20 mM MES buffer and the ratio at 339/351 nm (wavelengths corresponding to monomer and dimer conformations, respectively) was calculated and plotted as a function of pH for NTwt (dotted line) and NT_{D40K/K65D} (filled line). The ratio of fluorescence at 339 and 351 nm as a function of pH gives a sigmoidal plot for NTwt with a pKa of dimerization at pH 6.5. […]

Binder | pKa of dimerization [1] [pH] | binding result [2]
B1 | 6.5 | –
B2 | – | no binding (tested: 5 µM protein, pH 5.6-8.0)
